Here are results for one protein from the PETadex activity labels (doi:10.1007/s00253-011-3781-6).

In general, Km refers to the substrate concentration at which the rate is half of its maximum. As a reminder, the kcat is the number of substrate molecules converted per active site and unit of time at saturation. The kcat/Km is the turnover number divided by the Michaelis constant.

Holding throughout (conditions): pH 6; 37 °C
Substrate in one series: p-NP-C2
Substrate in another series: p-NP-C4
Substrate in the next series: p-NP-C6
Substrate in the next series: p-NP-C8

B1: unnamed (protein)
chain: MSVTTPRRETSLLSRALRATAAAATAVVATVALAAPAQAANPYERGPNPTESMLEARSGPFSVSEERASRFGADGFGGGTIYYPRENNTYGAIAISPGYTGTQSSIAWLGERIASHGFVVIAIDTNTTLDQPDSRARQLNAALDYMLTDASSAVRNRIDASRLAVMGHSMGGGGTLRLASQRPDLKAAIPLTPWHLNKSWRDITVPTLIIGAEYDTIASVTLHSKPFYNSIPSPTDKAYLELDGASHFAPNITNKTIGMYSVAWLKRFVDEDTRYTQFLCPGPRTGLLSDVEEYRSTCPF
For the protein B1, the Michaelis constant (Km) was 3220 µM in the series with p-NP-C2, 3410 µM in the series with p-NP-C4, 2370 µM with p-NP-C6 and 1870 µM with p-NP-C8. The kcat turned out to be 2.06 s⁻¹ in the series with p-NP-C2, 4.48 s⁻¹ in the series with p-NP-C4, 3.28 s⁻¹ in the series with p-NP-C6 and 2.45 s⁻¹ in the series with p-NP-C8. The kcat/Km with p-NP-C2 turned out to be 640 M⁻¹ s⁻¹; with p-NP-C4, 1310 M⁻¹ s⁻¹; with p-NP-C6, 1380 M⁻¹ s⁻¹; with p-NP-C8, 1310 M⁻¹ s⁻¹.
